B1: yeast-displayed wild-type human IL-11 [human] / soluble human IL-11 receptor extracellular domain, his-tagged [human] (parent complex)
chain 1: PGPPPGPPRVSPDPRAELDSTVLLTRSLLADTRQLAAQLRDKFPADGDHNLDSLPTLAMSAGALGALQLPGVLTRLRADLLSYLRHVQWLRRAGGSSLKTLEPELGTLQARLDRLLRRLQLLMSRLALPQPPPDPPAPPLAPPSSAWGGIRAAHAILGGLHLTLDWAVRGLLLLKTRL
chain 2: SPCPQAWGPPGVQYGQPGRSVKLCCPGVTAGDPVSWFRDGEPKLLQGPDSGLGHELVLAQADSTDEGTYICQTLDGALGGTVTLQLGYPPARPVVSCQAADYENFSCTWSPSQISGLPTRYLTSYRKKTVLGADSQRRSPSTGPWPCPQDPLGAARCVVHGAEFWSQYRINVTEVNPLGASTRLLDVSLQSILRPDPPQGLRVESVPGYPRRLRASWTYPASWPCQPHFLLKFRLQYRPAQHPAWSTVEPAGLEEVITDAVAGLPHAVRVSARDFLDAGTWSTWSPEAWGTPSTGTIPKEIPAWGQLHTQPEVEPQVDSPAPPRPSLQPHPRLLDHRDSVEQVAVLA

One may read the Kd as the concentration at which binding is half-saturated.

In the experiment the parent is B1. The experiment is described as follows: yeast display titration (flow cytometry); parent: 8.2 nM. Background: Flow cytometry measures light scatter and fluorescence of single cells or particles in a stream.
Regarding chain 1 PGPPPGPPRVSPDPRAELGSIVLLTRSLLADTRQLAAQLRDKFPADGDHNLDSLPTPAMSARALGALQLPDVLTRLRADLLSYLRHVQWLRRAGGSSLKTLEPELGTLQARLDRLLRRLQLLMSRLALPQPPPDPPAPPLAPPSSAWGGIRAAHAILGGLHLTLDWAVRGLLLLKTRL [chain 1 D19G, chain 1 T21I, chain 1 L57P, chain 1 G62R, chain 1 G71D], the Kd was 0.19 nM. For the variant chain 1 PGPPPGPPRVSPDPRAELDSTVLLTRSLLADTRQLAAQLRDKFPADGDHNLDSLPTPAMSARALGALQLPGVLTRLRADLLSYLRHVQWLRRAGGSSLKTLEPELGTLQARLDRLLRRLQLLMSRLALPQPPPDPPAPPLAPPSSAWGGIRAAHAILGGLHLTLDWAVRGLLLLKTRL [chain 1 L57P, chain 1 G62R], the Kd is 0.42 nM.

Take chain 1 PGPPPGPPRVSPDPRAELDSIVLLTRSLLADTRQLAAQLRDKFPADGDHNLDSLPTPAMSARALGALQLPGVLTRLRADLLSYLRHVQWLRRAGGSSLKTLEPELGTLQARLDRLLRRLQLLMSRLALPQPPPDPPAPPLAPPSSAWGGIRAAHAILGGLHLTLDWAVRGLLLLKTRL [chain 1 T21I, chain 1 L57P, chain 1 G62R]: the Kd was 0.22 nM.

Source of the values: paper PMC10658506 (2023).
